Test results reported in the supplement of paper PMC10065799, “High-throughput profiling of sequence recognition by tyrosine kinases and SH2 domains using bacterial peptide display” (eLife, 2023).

What was measured:
c-Src SH2 = assay: SH2 binding enrichment of the phosphorylated peptide, bacterial display (enrichment ratio); higher = better substrate or ligand; peptides without Tyr show the background
SHP2-C SH2 = assay: as above
Grb2 SH2 = Grb2 SH2 (UniProt P62993); assay: as above
EPHB2 = EPHB2 (UniProt P29323); assay: phosphorylation enrichment, bacterial display (enrichment ratio); higher = better substrate or ligand; peptides without Tyr show the background
EPHB2, sequence (P29323 whole entry, looked up): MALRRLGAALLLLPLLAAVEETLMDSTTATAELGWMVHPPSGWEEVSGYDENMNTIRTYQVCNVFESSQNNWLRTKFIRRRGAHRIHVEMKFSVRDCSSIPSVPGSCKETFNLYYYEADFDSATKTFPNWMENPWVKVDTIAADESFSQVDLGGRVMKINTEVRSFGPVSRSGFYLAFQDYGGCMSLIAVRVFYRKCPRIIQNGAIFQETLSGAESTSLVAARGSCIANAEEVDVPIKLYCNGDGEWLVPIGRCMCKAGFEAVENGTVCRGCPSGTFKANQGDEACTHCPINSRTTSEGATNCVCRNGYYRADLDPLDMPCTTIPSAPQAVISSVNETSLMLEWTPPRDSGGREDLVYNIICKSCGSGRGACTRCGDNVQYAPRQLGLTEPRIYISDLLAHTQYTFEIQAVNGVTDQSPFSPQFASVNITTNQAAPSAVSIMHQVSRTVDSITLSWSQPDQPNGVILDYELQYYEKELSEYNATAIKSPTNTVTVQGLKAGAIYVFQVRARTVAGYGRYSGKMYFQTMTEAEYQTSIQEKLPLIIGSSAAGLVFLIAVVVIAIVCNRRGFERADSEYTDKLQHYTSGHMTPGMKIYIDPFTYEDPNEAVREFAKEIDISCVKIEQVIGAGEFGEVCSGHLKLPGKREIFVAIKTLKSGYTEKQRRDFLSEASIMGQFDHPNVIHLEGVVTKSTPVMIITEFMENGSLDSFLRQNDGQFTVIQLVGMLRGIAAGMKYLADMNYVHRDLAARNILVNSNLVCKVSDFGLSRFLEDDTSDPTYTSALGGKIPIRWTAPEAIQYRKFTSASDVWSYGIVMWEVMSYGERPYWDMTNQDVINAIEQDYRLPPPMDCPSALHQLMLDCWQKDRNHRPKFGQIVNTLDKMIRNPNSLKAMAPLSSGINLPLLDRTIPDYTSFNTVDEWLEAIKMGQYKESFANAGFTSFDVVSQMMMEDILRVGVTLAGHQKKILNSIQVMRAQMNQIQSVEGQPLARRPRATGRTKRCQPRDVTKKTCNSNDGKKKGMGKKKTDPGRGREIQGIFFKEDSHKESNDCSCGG

Jak2 = Jak2 (UniProt O60674); assay: as above
Jak2, sequence (O60674 whole entry, looked up): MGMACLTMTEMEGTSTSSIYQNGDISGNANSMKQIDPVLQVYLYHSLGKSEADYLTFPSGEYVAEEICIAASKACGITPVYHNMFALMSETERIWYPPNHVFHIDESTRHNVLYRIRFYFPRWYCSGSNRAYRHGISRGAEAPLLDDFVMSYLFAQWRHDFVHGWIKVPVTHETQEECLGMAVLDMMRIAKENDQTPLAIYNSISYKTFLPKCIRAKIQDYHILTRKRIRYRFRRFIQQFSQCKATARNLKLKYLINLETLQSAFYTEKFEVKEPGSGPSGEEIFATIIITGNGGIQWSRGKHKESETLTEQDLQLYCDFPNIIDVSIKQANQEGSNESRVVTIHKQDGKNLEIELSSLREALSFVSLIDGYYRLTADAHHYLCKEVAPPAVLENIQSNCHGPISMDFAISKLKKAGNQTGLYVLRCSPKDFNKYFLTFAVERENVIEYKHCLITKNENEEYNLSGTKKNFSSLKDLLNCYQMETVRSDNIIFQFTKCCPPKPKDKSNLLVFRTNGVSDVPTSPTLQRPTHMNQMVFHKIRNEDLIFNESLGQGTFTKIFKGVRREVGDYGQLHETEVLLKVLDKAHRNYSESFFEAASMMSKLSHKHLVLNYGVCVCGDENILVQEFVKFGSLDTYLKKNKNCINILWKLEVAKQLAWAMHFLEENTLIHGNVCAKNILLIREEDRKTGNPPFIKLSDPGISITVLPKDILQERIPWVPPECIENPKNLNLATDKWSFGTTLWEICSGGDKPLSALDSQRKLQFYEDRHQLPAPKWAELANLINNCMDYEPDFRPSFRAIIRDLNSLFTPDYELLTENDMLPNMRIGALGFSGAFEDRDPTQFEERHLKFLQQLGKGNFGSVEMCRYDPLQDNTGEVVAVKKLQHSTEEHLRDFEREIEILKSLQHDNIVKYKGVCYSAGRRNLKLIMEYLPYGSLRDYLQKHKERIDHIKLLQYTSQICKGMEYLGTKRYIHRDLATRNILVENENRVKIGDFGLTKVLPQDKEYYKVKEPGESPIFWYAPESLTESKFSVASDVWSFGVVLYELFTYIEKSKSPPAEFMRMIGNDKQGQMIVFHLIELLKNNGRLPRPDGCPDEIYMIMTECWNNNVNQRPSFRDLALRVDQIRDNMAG

Fer (mouse) = assay: as above
FGFR3 = FGFR3 (UniProt P22607); assay: as above
FGFR3, sequence (P22607 whole entry, looked up): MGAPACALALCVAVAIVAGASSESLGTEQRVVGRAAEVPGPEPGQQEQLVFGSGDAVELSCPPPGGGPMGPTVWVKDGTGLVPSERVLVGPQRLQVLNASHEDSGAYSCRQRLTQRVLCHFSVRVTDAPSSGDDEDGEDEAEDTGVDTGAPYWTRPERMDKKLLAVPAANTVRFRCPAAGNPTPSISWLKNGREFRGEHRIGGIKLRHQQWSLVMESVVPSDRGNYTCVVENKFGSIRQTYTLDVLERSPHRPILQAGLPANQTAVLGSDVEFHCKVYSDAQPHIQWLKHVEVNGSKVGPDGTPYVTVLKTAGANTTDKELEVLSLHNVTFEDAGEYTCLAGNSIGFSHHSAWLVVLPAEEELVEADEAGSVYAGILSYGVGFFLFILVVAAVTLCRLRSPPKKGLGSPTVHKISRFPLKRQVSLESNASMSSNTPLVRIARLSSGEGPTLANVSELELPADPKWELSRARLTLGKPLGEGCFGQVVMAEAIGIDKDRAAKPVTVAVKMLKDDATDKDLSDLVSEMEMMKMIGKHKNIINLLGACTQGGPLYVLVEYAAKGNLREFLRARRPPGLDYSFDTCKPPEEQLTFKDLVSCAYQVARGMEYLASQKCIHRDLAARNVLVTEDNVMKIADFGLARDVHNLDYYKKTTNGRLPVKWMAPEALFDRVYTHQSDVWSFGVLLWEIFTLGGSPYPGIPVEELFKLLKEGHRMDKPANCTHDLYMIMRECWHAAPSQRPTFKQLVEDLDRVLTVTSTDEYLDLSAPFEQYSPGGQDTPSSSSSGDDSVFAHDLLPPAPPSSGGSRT

AncSZ = assay: as above
c-Src = assay: as above
EPHB1 = EPHB1 (UniProt P54762); assay: as above
Fes = Fes (UniProt P07332); assay: as above
Fyn = Fyn (UniProt P06241); assay: as above
Fyn, sequence (P06241 whole entry, looked up): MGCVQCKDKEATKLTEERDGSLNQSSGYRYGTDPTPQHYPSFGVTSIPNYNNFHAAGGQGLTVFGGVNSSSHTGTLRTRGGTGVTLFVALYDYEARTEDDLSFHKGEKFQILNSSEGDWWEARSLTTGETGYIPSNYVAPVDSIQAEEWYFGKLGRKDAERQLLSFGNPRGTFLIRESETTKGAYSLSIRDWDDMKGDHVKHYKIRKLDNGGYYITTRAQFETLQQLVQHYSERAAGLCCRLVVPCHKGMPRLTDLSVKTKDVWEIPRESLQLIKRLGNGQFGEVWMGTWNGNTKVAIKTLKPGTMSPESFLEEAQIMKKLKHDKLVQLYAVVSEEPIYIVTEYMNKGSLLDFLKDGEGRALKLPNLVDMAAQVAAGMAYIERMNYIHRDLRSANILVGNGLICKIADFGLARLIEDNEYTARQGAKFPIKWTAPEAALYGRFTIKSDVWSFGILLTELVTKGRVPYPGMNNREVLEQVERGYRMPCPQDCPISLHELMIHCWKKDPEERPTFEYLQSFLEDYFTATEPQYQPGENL

FGFR1 = FGFR1 (UniProt P11362); assay: as above
FGFR1, sequence (P11362 whole entry, looked up): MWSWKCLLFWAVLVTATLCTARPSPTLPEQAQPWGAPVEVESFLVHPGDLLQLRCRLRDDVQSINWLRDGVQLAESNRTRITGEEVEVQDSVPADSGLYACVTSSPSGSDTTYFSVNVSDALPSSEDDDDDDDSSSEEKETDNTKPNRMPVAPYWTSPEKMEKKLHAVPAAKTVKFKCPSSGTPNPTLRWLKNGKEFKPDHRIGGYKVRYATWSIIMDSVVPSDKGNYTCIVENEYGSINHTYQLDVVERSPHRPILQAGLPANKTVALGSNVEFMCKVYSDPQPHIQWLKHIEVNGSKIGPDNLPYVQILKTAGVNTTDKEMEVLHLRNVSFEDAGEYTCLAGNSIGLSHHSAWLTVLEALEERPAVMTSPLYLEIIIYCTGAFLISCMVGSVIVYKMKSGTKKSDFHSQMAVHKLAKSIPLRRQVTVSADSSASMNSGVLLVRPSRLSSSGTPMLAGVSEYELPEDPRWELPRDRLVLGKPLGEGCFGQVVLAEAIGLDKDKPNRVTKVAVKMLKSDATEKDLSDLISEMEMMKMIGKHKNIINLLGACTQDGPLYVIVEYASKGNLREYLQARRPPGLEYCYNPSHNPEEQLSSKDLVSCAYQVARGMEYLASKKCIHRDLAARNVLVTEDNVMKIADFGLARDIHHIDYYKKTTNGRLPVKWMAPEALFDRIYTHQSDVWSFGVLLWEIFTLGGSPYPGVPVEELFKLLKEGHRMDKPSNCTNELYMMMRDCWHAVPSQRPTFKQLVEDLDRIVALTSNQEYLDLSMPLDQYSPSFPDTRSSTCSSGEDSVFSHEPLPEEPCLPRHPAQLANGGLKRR

Hck = Hck (UniProt P08631); assay: as above
Hck, sequence (P08631 whole entry, looked up): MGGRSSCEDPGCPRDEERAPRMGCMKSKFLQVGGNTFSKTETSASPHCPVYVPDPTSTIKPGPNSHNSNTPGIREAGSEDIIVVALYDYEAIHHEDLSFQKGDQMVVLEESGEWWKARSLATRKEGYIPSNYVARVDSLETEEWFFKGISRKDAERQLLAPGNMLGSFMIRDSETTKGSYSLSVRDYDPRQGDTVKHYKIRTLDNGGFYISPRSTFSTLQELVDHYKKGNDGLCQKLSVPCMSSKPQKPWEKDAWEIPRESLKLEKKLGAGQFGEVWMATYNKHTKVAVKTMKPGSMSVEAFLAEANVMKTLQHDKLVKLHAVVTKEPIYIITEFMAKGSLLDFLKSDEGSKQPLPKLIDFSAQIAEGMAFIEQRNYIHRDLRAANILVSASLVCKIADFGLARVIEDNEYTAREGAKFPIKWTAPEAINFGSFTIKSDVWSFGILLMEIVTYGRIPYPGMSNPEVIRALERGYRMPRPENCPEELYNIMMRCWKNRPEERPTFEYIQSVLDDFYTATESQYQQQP

MERTK = MERTK (UniProt Q12866); assay: as above
c-Abl (mouse) = assay: as above
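Wherever SH2 binding enrichment of the phosphorylated peptide, bacterial display is given: peptide library displayed on the E. coli surface as eCPX fusions, selected cells deep-sequenced, score is each peptide's frequency after selection divided by its frequency in the input.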
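Wherever phosphorylation enrichment, bacterial display is given: 11-residue human phosphosite peptides and single-mutation variants displayed on the E. coli surface, counted by deep sequencing, each peptide's frequency after selection divided by its frequency in the unselected input library; frequency after pTyr selection over input frequency; kinase dosed for 20-30% of maximal phosphorylation in three min.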

SH2 binding enrichment (c-Src SH2) | SH2 binding enrichment (SHP2-C SH2) | SH2 binding enrichment (Grb2 SH2) | Sequence | phosphorylation enrichment (EPHB2) | phosphorylation enrichment (Jak2) | phosphorylation enrichment (Fer (mouse)) | phosphorylation enrichment (FGFR3) | phosphorylation enrichment (AncSZ) | phosphorylation enrichment (c-Src) | phosphorylation enrichment (EPHB1) | phosphorylation enrichment (Fes) | phosphorylation enrichment (Fyn) | phosphorylation enrichment (FGFR1) | phosphorylation enrichment (Hck) | phosphorylation enrichment (MERTK) | phosphorylation enrichment (c-Abl (mouse))
0.552 | 0.837 | 1.08 | TTKGSYSLFVR [HCK_Y180_S183Y_YF] | 0.846 | 0.742 | 0.43 | 0.57 | 1 | 0.419 | 0.351 | 1.09 | 0.418 | 0.383 | 0.441 | 0.45 | 0.546
0.538 | 0.607 | 0.846 | TVFENYVADIK [RHOA_Y42_E47K] | 0.676 | 0.889 | 0.495 | 0.688 | 0.922 | 0.536 | 0.845 | 0.878 | 0.534 | 0.48 | 0.534 | 0.442 | 0.699
0.504 | 0.811 | 0.838 | TVINKYQGKLF [HGD_Y249] | 0.436 | 0.545 | 0.372 | 0.401 | 0.514 | 0.449 | 0.336 | 0.596 | 0.414 | 0.473 | 0.447 | 0.398 | 0.513
0.453 | 0.704 | 0.745 | TVQVAYFTMMM [SPATA17_Y83_YF] | 0.667 | 1.15 | 0.678 | 1.17 | 1.04 | 0.599 | 0.662 | 1.41 | 0.5 | 1.04 | 0.59 | 0.441 | 0.791
0.451 | 0.413 | 0.767 | VAVVQYSGTGQ [COL6A1_Y878] | 0.463 | 0.576 | 0.387 | 0.564 | 0.517 | 0.451 | 0.479 | 0.71 | 0.357 | 0.487 | 0.438 | 0.412 | 0.592
1.66 | 0.737 | 0.893 | VCHELYNAIRD [PBRM1_Y54_T56A] | 0.574 | 0.79 | 0.567 | 0.702 | 0.939 | 1.33 | 0.543 | 0.933 | 0.672 | 0.464 | 2.62 | 0.43 | 0.693
0.489 | 0.635 | 0.849 | VDEVLYEDSST [MTHFS_Y197] | 0.671 | 1.18 | 2.56 | 0.886 | 1.53 | 0.615 | 0.666 | 1.34 | 0.571 | 0.742 | 0.646 | 0.492 | 0.785
1.45 | 0.686 | 0.663 | VEKGSYSALLA [ABCC2_Y845] | 0.392 | 0.69 | 0.45 | 0.456 | 0.648 | 0.493 | 0.354 | 0.535 | 0.332 | 0.401 | 0.537 | 0.71 | 0.516
0.527 | 0.638 | 0.983 | VFAADYFKLLG [ROR2_Y645_YF] | 0.403 | 7.31 | 0.467 | 4.37 | 0.819 | 0.562 | 0.52 | 0.643 | 0.417 | 7.25 | 0.439 | 0.394 | 0.498
1.76 | 1.2 | 1.24 | VFFGSYSRPFG [NKAP_Y104_YF] | 0.445 | 1.12 | 0.419 | 0.65 | 1.39 | 0.584 | 0.396 | 0.974 | 0.382 | 0.522 | 0.479 | 0.777 | 1.02
0.646 | 1.32 | 1.4 | VFPIDYFFPPQ [AR_Y552_L548F_YF] | 1.53 | 2.76 | 0.643 | 10.7 | 4.04 | 0.906 | 1.19 | 1.04 | 0.508 | 12.6 | 0.618 | 0.518 | 1.03
0.405 | 0.547 | 0.862 | VGNPAYRSFSN [IL4R_Y497_A492V] | 0.417 | 0.608 | 0.509 | 0.435 | 0.518 | 0.376 | 0.368 | 0.546 | 0.441 | 0.412 | 0.329 | 0.374 | 0.478
0.485 | 0.572 | 0.832 | VGTKQYMAPEV [ACVRL1_Y375_R374Q] | 0.653 | 0.738 | 0.42 | 0.51 | 0.678 | 0.598 | 0.466 | 0.754 | 0.432 | 0.458 | 0.429 | 0.469 | 0.674
1.07 | 0.643 | 0.731 | VHNLDYYKMTT [FGFR3_Y647_K650M] | 0.895 | 5.87 | 0.522 | 8.96 | 1.33 | 0.496 | 1.17 | 0.608 | 0.439 | 12.1 | 0.547 | 0.492 | 0.433
0.585 | 0.777 | 0.803 | VHVEVYDRPSP | 0.668 | 1.01 | 0.802 | 0.761 | 1.39 | 0.597 | 0.791 | 1.02 | 0.855 | 0.438 | 1.95 | 0.531 | 1.33
0.427 | 0.647 | 0.846 | VKPENYRRPDI [VHL_Y175_L178P] | 0.468 | 0.525 | 0.344 | 0.526 | 0.566 | 0.436 | 0.335 | 0.699 | 0.333 | 0.388 | 0.364 | 0.371 | 0.63
0.882 | 0.927 | 0.95 | VNTTLYEKFTF [TEK_Y1108_YF] | 0.748 | 0.891 | 8.38 | 0.677 | 0.886 | 2.89 | 1.1 | 0.989 | 2.48 | 0.456 | 4.13 | 4.71 | 0.976

Continued, sequence first:

Sequence | SH2 binding enrichment (c-Src SH2) | SH2 binding enrichment (SHP2-C SH2) | SH2 binding enrichment (Grb2 SH2) | phosphorylation enrichment (EPHB2) | phosphorylation enrichment (Jak2) | phosphorylation enrichment (Fer (mouse)) | phosphorylation enrichment (FGFR3) | phosphorylation enrichment (AncSZ) | phosphorylation enrichment (c-Src) | phosphorylation enrichment (EPHB1) | phosphorylation enrichment (Fes) | phosphorylation enrichment (Fyn) | phosphorylation enrichment (FGFR1) | phosphorylation enrichment (Hck) | phosphorylation enrichment (MERTK) | phosphorylation enrichment (c-Abl (mouse))
TTPGPHRSIFF [MPG_Y71_Y71H_YF] | 0.681 | 1 | 0.895 | 0.386 | 0.449 | 0.328 | 0.41 | 0.502 | 0.303 | 0.41 | 0.514 | 0.398 | 0.353 | 0.355 | 0.376 | 0.542
TTSQLYDAMPI [PDPK1_Y9_V12M] | 0.712 | 0.417 | 0.854 | 6.17 | 0.665 | 12.4 | 0.809 | 0.986 | 3.9 | 8.16 | 0.794 | 6.16 | 0.537 | 8.57 | 9.19 | 0.706
TVDASYFGGRG [ANTXR2_Y380_YF] | 0.474 | 0.513 | 1.01 | 0.337 | 0.677 | 0.312 | 0.394 | 0.569 | 0.413 | 0.333 | 0.567 | 0.403 | 0.372 | 0.425 | 0.438 | 0.519
VAFLFYKSIGP [ADGRL4_Y302_V300L_YF] | 0.301 | 0.457 | 0.542 | 0.664 | 1.98 | 0.55 | 0.837 | 1.38 | 0.558 | 0.689 | 1.6 | 0.5 | 0.739 | 0.488 | 0.523 | 1.12
VDDEIYYFRKP [PBRM1_Y1289] | 0.521 | 0.57 | 0.994 | 0.84 | 1.35 | 1.29 | 5.81 | 2.94 | 6.81 | 0.871 | 1.39 | 8.84 | 6.49 | 8.76 | 4.89 | 7.44
VDDQIYFFRKP [PBRM1_Y1289_E1287Q_YF] | 0.42 | 0.669 | 0.778 | 0.785 | 1.61 | 0.728 | 3.47 | 2.49 | 4.67 | 0.961 | 1.55 | 6.38 | 3.43 | 5.8 | 1.42 | 3.29
VDEERYDIEAK [TNNI3_Y112] | 0.62 | 0.647 | 0.852 | 0.708 | 1.12 | 0.519 | 0.697 | 1.13 | 0.483 | 0.516 | 1.24 | 0.513 | 0.555 | 0.724 | 0.439 | 0.752
VDYQPYRKHKY [TEX37_Y28] | 0.918 | 1.11 | 0.917 | 0.356 | 0.483 | 0.425 | 0.416 | 0.627 | 0.35 | 0.314 | 0.518 | 0.436 | 0.423 | 0.484 | 0.302 | 0.53
VERRVYAEDPF [PCCA_Y401_C398R_YF] | 0.668 | 0.777 | 1 | 0.499 | 0.674 | 0.39 | 0.481 | 0.722 | 0.462 | 0.385 | 0.76 | 0.554 | 0.429 | 0.412 | 0.384 | 0.648
VFGVSYDEYRY [CFTR_Y512_I507V] | 1.38 | 0.72 | 0.781 | 0.465 | 0.761 | 0.453 | 0.604 | 1.01 | 1.31 | 0.538 | 0.959 | 0.802 | 0.434 | 0.712 | 0.477 | 0.566
VFSIDYFRVGG [NTRK2_Y706_T704I_YF] | 1.08 | 2.13 | 1.2 | 0.563 | 5.86 | 0.484 | 2.94 | 1.35 | 0.649 | 0.874 | 1.08 | 0.535 | 4.54 | 0.588 | 0.526 | 0.829
VHKKGYNKLNQ [ZNF676_Y98_E96K] | 0.962 | 0.885 | 1.08 | 0.374 | 0.569 | 0.439 | 0.516 | 0.408 | 0.488 | 0.48 | 0.66 | 0.403 | 0.494 | 0.43 | 0.384 | 0.645
VIERSYTSADG [DHCR7_Y382_C380R] | 1.39 | 0.564 | 0.852 | 0.478 | 0.578 | 0.454 | 0.466 | 0.571 | 0.419 | 0.388 | 0.692 | 0.496 | 0.414 | 0.392 | 0.395 | 0.565
VIGRMYDFHVL [RPF2_Y109_YF] | 0.876 | 1.14 | 1.05 | 0.659 | 0.804 | 8.04 | 0.607 | 0.943 | 0.598 | 0.556 | 0.902 | 0.469 | 0.472 | 0.6 | 3.11 | 0.573
VKFLGYPPPEI [KDR_Y357_A352V_YF] | 0.523 | 0.852 | 0.809 | 0.618 | 0.744 | 0.427 | 0.555 | 0.692 | 0.371 | 0.452 | 0.974 | 0.443 | 0.398 | 0.369 | 0.402 | 0.688
VKKKLDEEIDQ [CYP17A1_Y329_Y329D] | 0.705 | 0.853 | 1.03 | 0.555 | 0.782 | 0.422 | 0.579 | 0.839 | 0.441 | 0.505 | 0.792 | 0.483 | 0.578 | 0.488 | 0.523 | 0.693
